B1: BMP2/6 heterodimer (ligand)
chain 1: QAKHKQRKRLKSSCKRHPLYVDFSDVGWNDWIVAPPGYHAFYCHGECPFPLADHLNSTNHAIVQTLVNSVNSKIPKACCVPTELSAISMLYLDENEKVVLKNYQDMVVEGCGCR
chain 2: SASSRRRQQSRNRSTQSQDVARVSSASDYNSSELKTACRKHELYVSFQDLGWQDWIIAPKGYAANYCDGECSFPLNAHMNATNHAIVQTLVHLMNPEYVPKPCCAPTKLNAISVLYFDDNSNVILKKYRNMVVRACGCH
notes: bone morphogenetic protein 2 chain of the BMP2/6 heterodimer; bone morphogenetic protein 6 chain of the BMP2/6 heterodimer; also called heterodimer of BMP2/6; source: bought: RND Systems #7145-BP-010/CF; copies: 1 + 1
B2: BMP6 homodimer (ligand, UniProt P22004 375-513, looked up)
chain: SASSRRRQQSRNRSTQSQDVARVSSASDYNSSELKTACRKHELYVSFQDLGWQDWIIAPKGYAANYCDGECSFPLNAHMNATNHAIVQTLVHLMNPEYVPKPCCAPTKLNAISVLYFDDNSNVILKKYRNMVVRACGCH
notes: bone morphogenetic protein 6; source: bought: RND Systems 507-BP-020/CF
B3: BMP2 homodimer (ligand, UniProt P12643 283-396, looked up)
chain: QAKHKQRKRLKSSCKRHPLYVDFSDVGWNDWIVAPPGYHAFYCHGECPFPLADHLNSTNHAIVQTLVNSVNSKIPKACCVPTELSAISMLYLDENEKVVLKNYQDMVVEGCGCR
notes: bone morphogenetic protein 2; source: bought: RND Systems #355-BM-010/CF

Tests used:
BMP2 homodimer [1] = biological target: B3; assay: SPR; scan of overlapping synthetic 18-mer peptides of the ERFE N terminus over BMP2/6, BMP2 or BMP6; 180 s injection, then buffer wash; settings: both partners purified
BMP6 homodimer [2] = biological target: B2; assay: as above; settings: both partners purified
BMP2/6 heterodimer [3] = biological target: B1; assay: as above; settings: both partners purified
BMP2 homodimer [4] = biological target: B3; assay: SPR; Biacore T200, CM5 chip; BMP2, BMP6 or BMP2/6 immobilised by amine coupling (50 μg/ml); purified bacterial untagged ERFE N-terminal variants or synthetic 53-mer segments as analyte; HBS-EP pH 7.4, 50 μl/min; KD = koff/kon at five concentrations; settings: both partners purified
BMP6 homodimer [5] = biological target: B2; assay: as above; settings: both partners purified
BMP2/6 heterodimer [6] = biological target: B1; assay: as above; settings: both partners purified
BMP2 homodimer [7] = biological target: B3; assay: as above; settings: both partners purified; remark: listed apart in the source
BMP6 homodimer [8] = biological target: B2; assay: as above; settings: both partners purified; remark: listed apart in the source
BMP2/6 heterodimer [9] = biological target: B1; assay: as above; settings: both partners purified; remark: listed apart in the source
[10] = biological target: T1, Full-length ERFE (erythroferrone), 43-354, FLAG-tagged (human, UniProt Q4G0M1 43-354); assay: SPR; Biacore T200, CM5 chip; BMP2, BMP6 or BMP2/6 immobilised by amine coupling (50 μg/ml); FLAG-ERFE variants made in HEK293T as analyte; HBS-EP (0.15 M NaCl, 3 mM EDTA, 0.005% P20, 0.01 M Hepes pH 7.4), 50 μl/min; KD = koff/kon at five concentrations; the paper calls the constants avidities where binding is presumed multivalent; settings: one partner purified
T1 construct: human erythroferrone (ERFE), mature molecule, residues 43-354; pcDNA3.1(+) backbone; Predominantly a hexamer at low concentration on native PAGE, a smear of 117-460 kDa at high concentration; also called Full length, 43-354; WT, 43-354; source: HEK293T, transiently transfected, in supernatant; not shown: FLAG, N-terminal, kept

[11] = biological target: T1, Full-length ERFE (erythroferrone), …; assay: as above; settings: one partner purified; remark: listed apart in the source

Row | binding result (BMP2 homodimer [1]) | binding result (BMP6 homodimer [2]) | binding result (BMP2/6 heterodimer [3]) | Kd [10] | koff [11] | Binder | other results
1 | binds | binds | binds | – | – | AHSVDPRDAWMLFVRQSD (peptide, UniProt Q4G0M1 73-90, looked up, human erythroferrone (ERFE), residues 73-90; source: synthetic peptide (GenScript, ≥70% purity)) [ERFE 18-mer peptide 73-90] | –
2 | binds | binds | binds | – | – | GPPGPIIPPEALLKEFQL (peptide, UniProt Q4G0M1 121-138, looked up, human erythroferrone (ERFE), residues 121-138; source: synthetic peptide (GenScript, ≥70% purity)) [ERFE 18-mer peptide 121-138] | –
3 | binds | binds | binds | – | – | LKEFQLLLKGAVRQRERA (peptide, UniProt Q4G0M1 133-150, looked up, human erythroferrone (ERFE), residues 133-150; source: synthetic peptide (GenScript, ≥70% purity)) [ERFE 18-mer peptide 133-150] | –
4 | – | – | – | – | – | ERFE N terminus ΔCollagen, 43-148 del109-125 (bacterial) (domain or fragment, human, UniProt Q4G0M1 43-148, looked up, also called bacterial ΔCollagen N terminus; source: E. coli Rosetta2(DE3)pLysS, purified (Ni-NTA, TEV cleavage, reverse IMAC); not shown: His6, N-terminal, cleaved; MBP, N-terminal, cleaved) EPPPGNELPRGPGESRAGPAARPPEPTAERAHSVDPRDAWMLFVRQSDKGVNGKKRSRGKAKKLKFIIPPEALLKEFQLLLKGAVRQRE | koff (BMP2 homodimer [4]): 0.0056 s⁻¹; log kd (BMP2 homodimer [4]): -2.29; koff (BMP6 homodimer [5]): 0.0085 s⁻¹; log kd (BMP6 homodimer [5]): -2.17; koff (BMP2/6 heterodimer [6]): 0.0052 s⁻¹; log kd (BMP2/6 heterodimer [6]): -2.29; Kd (BMP2 homodimer [7]): 3.13 nM; pKd (-log Kd) (BMP2 homodimer [7]): 8.7; Kd (BMP6 homodimer [8]): 0.756 nM; pKd (-log Kd) (BMP6 homodimer [8]): 9.2; Kd (BMP2/6 heterodimer [9]): 50.1 nM; pKd (-log Kd) (BMP2/6 heterodimer [9]): 7.3
5 | binds | binds | binds | – | – | KRSRGKAKKLKFGLPGPP (peptide, UniProt Q4G0M1 97-114, looked up, also called cationic 18-mer peptide; source: synthetic peptide (GenScript, ≥70% purity)) [ERFE 18-mer peptide 97-114] | –
6 | – | – | – | 0.277 nM | 0.00022 s⁻¹ | B1 | –
7 | – | – | – | 0.817 nM | 0.00022 s⁻¹ | B2 | –
8 | – | – | – | 0.445 nM | 9e-05 s⁻¹ | B3 | –

— article PMC10692919, “Characterization of erythroferrone structural domains relevant to its iron-regulatory function” (The Journal of Biological Chemistry, 2023)
